Entries after “also recorded” stand apart in the source; their conditions may differ.

In one assay the target is T1, Bcl-xL (Homo sapiens, UniProt Q07817, DEL27-82).
T1 construct: one containing the fragment 1-26, and the other the fragment 81-209; 6His (N, cleaved yes); made in house; host or cells: Escherichia coli BL21 (DE3) pRARE2
The experiment in a line: Heterocomplex formation with Bcl-xL (native MS, SEC-MALS, gel filtration). Format: binding. To be noted: native MS: Bcl-xL(Δ27-81ΔCT), equimolar 100 μM, 30 °C, checked at 5 μM (for TCTP-R21A). As to the method: (§1) When not specified, proteins tested for binding experiments were mixed at 100 μM, dialyzed against 10 mM CHES pH 9, 50 mM NaCl, 1 mM DTT or TCEP, depending on the analysis, and heated overnight at 30 °C.
(§2) For binding experiments, 100 to 200PL of protein mixture were loaded on a size exclusion chromatography (S200, GE Healthcare) column, while elution profiles were measured by UV absorption at 280 nm.
(§3) SEC-MALS experiments were performed on a multi-angle light scattering detector (miniDAWN TREOS, Wyatt Technologies) coupled in-line with SEC and an interferometric refractometer (Optilab T-rEX, Wyatt Technologies). See Supplementary Information for full details.
(§4) Prior to any mass spectrometry experiment, protein buffer was exchanged twice against a 50 mM ammonium acetate (NH4Ac) solution at pH 9.0 using microcentrifuge gel filtration columns (Zeba 0.5 ml, Thermo Scientific, Rockford, IL). Protein concentration was determined spectrophotometrically. […]
Supplementary Table 1. Measured molecular weights in denaturing conditions Sample Theoretical molecular Measured molecular Associated mass (Da) mass (Da) species […]
(§5) Gel filtration. For binding experiments, 100 to 200PL of protein mixture were loaded on a size exclusion chromatography (S200, GE Healthcare) column, while elution profiles were measured by UV absorption at 280nm. […]
Background: SEC sorts molecules by how far they enter the pores of the column.

A further assay relates to Bcl-xL-Y101K. Description: Heterocomplex formation with Bcl-xL-Y101K mutant. In kind it is binding, human. As to the method:
as §1, §2, §3, §4, §5
For MALS experiments, the molar mass was determined by construction of Debye plot using Zimm formalism (plot of K*c/R(T) as a function of sin2(T/2)) at 0.5 and 1sec data intervals, for Superdex S200 column. […]

T1 sequence (Q07817 with tags, fused parts or gaps DEL27-82): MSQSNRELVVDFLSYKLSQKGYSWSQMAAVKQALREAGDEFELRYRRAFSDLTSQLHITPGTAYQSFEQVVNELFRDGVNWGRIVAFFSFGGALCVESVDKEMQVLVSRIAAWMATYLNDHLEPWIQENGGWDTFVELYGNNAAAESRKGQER

For the substance “TCTP: Translationally Controlled Tumor Protein (TCTP/tpt1), recombinant full-length”, the “complex formation with Bcl-xL” value in the assay with Bcl-xL is given as “forms a heterotetramer with Bcl-xL; also recorded: forms heterotetrameric complexes with Bcl-xL”. For the same substance, the “complex formation with Bcl-xL-Y101K mutant” value in the assay with Bcl-xL-Y101K is “unable to form heterocomplexes”.

These data come from publication PMC4728560 (Scientific Reports, 2016).
